Biological target: His-PKM2, purified recombinant (UniProt P14618-1 1-531)
Experiment: pull-down

Sequence of His-PKM2, purified recombinant (P14618 whole entry): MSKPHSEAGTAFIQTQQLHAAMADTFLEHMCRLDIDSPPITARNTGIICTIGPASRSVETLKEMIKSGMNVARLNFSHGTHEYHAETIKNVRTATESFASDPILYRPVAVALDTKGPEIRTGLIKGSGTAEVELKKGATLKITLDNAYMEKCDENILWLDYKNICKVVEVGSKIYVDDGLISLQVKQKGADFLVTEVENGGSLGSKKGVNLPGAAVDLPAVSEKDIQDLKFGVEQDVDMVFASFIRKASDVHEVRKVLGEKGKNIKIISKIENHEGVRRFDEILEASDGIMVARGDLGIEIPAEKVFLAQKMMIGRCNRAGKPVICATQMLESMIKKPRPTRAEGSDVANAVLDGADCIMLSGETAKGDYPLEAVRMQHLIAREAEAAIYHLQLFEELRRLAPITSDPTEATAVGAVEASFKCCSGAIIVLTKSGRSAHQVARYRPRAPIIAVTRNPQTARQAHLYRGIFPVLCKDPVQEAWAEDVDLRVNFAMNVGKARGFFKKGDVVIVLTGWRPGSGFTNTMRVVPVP

Row | binding result | Binder
1 | binds | GST-KHK-A (enzyme) MEEKQILCVGLVVLDVISLVDKYPKEDSEIRCLSQRWQRGGNASNSCTVLSLLGAPCAFMGSMAPGHVADFVLDDLRRYSVDLRYTVFQTTGSVPIATVIINEASGSRTILYYDRSLPDVSATDFEKVDLTQFKWIHIEGRNASEQVKMLQRIDAHNTRQPPEQKIRVSVEVEKPREELFQLFGYGDVVFVSKDVAKHLGFQSAEEALRGLYGRVRKGAVLVCAWAEEGADALGPDGKLLHSDAFPPPRVVDTLGAGDTFNASVIFSLSQGRSVQEALRFGCQVAGKKCGLQGFDGIV
2 | binds | GST-KHK-A G257R (enzyme) MEEKQILCVGLVVLDVISLVDKYPKEDSEIRCLSQRWQRGGNASNSCTVLSLLGAPCAFMGSMAPGHVADFVLDDLRRYSVDLRYTVFQTTGSVPIATVIINEASGSRTILYYDRSLPDVSATDFEKVDLTQFKWIHIEGRNASEQVKMLQRIDAHNTRQPPEQKIRVSVEVEKPREELFQLFGYGDVVFVSKDVAKHLGFQSAEEALRGLYGRVRKGAVLVCAWAEEGADALGPDGKLLHSDAFPPPRVVDTLGARDTFNASVIFSLSQGRSVQEALRFGCQVAGKKCGLQGFDGIV

From paper PMC11252482 (Acta Pharmaceutica Sinica. B, 2024)
